Data from paper PMC5768893.

B1: PKCζ: Ogt KD (protein)
parent chain: MPSRTDPKMDRSGGRVRLKAHYGGDILITSVDAMTTFKDLCEEVRDMCGLHQQHPLTLKWVDSEGDPCTVSSQMELEEAFRLVCQGRDEVLIIHVFPSIPEQPGMPCPGEDKSIYRRGARRWRKLYRANGHLFQAKRFNRGAYCGQCSERIWGLSRQGYRCINCKLLVHKRCHVLVPLTCRRHMDSVMPSQEPPVDDKNDGVDLPSEETDGIAYISSSRKHDNIKDDSEDLKPVIDGVDGIKISQGLGLQDFDLIRVIGRGSYAKVLLVRLKKNDQIYAMKVVKKELVHDDEDIDWVQTEKHVFEQASSNPFLVGLHSCFQTTSRLFLVIEYVNGGDLMFHMQRQRKLPEEHARFYAAEICIALNFLHERGIIYRDLKLDNVLLDADGHIKLTDYGMCKEGLGPGDTTSTFCGTPNYIAPEILRGEEYGFSVDWWALGVLMFEMMAGRSPFDIITDNPDMNTEDYLFQVILEKPIRIPRFLSVKASHVLKGFLNKDPKERLGCRPQTGFSDIKSHAFFRSIDWDLLEKKQTLPPFQPQITDDYGLDNFDTQFTSEPVQLTPDDEDVIKRIDQSEFEGFEYINPLLLSAEESV
B2: PKCζ: PUGNAc (protein)
parent chain: B1 parent chain
B3: PKCζ: Thiamet G (protein)
parent chain: B1 parent chain
B4: PKCζ: T408A (protein)
parent chain: B1 parent chain

Key:
[1] = western blot anti-pT410 after FGF4 stimulation; settings: glycan lost; control: control cells stimulated with FGF4
[2] = western blot and immunostaining, anti-pT410, endogenous PKCζ; settings: glycan lost; control: control (Egfp shRNA) ESCs
[3] = anti-FLAG IP, anti-pT410 blot; settings: glycan gained; control: untreated PKCζ-FLAG cells
[4] = western blot anti-pT410 during PrE differentiation; settings: glycan gained; control: PrE day 4 cells without inhibitor
[5] = western blot of phosphorylated PKCζ-FLAG; settings: glycan lost; control: wild-type PKCζ-FLAG

Protein | other: PKCζ Thr-410 phosphorylation [1] | other: PKCζ Thr-410 phosphorylation [2] | other: PKCζ Thr-410 phosphorylation [3] | other: PKCζ Thr-410 phosphorylation [4] | other: PKCζ phosphorylation [5]
B1 | increases | increases |  |  | 
B2 |  |  | decreases | decreases | 
B3 |  |  | decreases | decreases | 
B4 |  |  |  |  | no change
